The numbers were not newly measured in PMC2645924, which cites them from elsewhere.

One data set has as its target Cys165 (UniProt position 166, HPGEVCPAKWK). Briefly: chemical modification. Conditions: Reduced mutant proteins.
The next data set deals with Cys46 (UniProt position 47, DFTFVCPTELG). Briefly: chemical modification. Conditions: Reduced mutant proteins.
A further data set concerns the target Cys32 (UniProt position 33, FWAEWCGPCKM).

Regarding “AhpC C46S mutant (only C165 remains) (Salmonella typhimurium; C46S)”, in the data set with Cys165, the pKa – broadly, the pH at which an ionisable group is half protonated – is reported as 8.7.

For the substance “AhpC C165S mutant (only C46 remains) (Salmonella typhimurium; C165S)”, the pKa entry with Cys46 was “less than 5”. As to Thioredoxin (Escherichia coli), in the data set with Cys32, the pKa is on record as 6.7 – 7.1.
